Experimental data taken from the supplement of paper PMC9732359.
± gives the uncertainty stated by the source.

assay: protein stability index of a GFP-peptide fusion (yeast GPS) (PSI 1-4); higher = more stable; sorted into four equal gates, so the index is relative within each strain; conditions: pdr5∆
How it was run: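 Each library plasmid carries Cherry plus GFP with a tiled 17-residue yeast protein peptide fused downstream, and the pooled library was carried in yeast. Mid-log cultures in leucine-free medium were sorted into four equal gates by GFP/Cherry ratio. Reads from Illumina sequencing of PCR-amplified plasmids from each gate were assigned to strains by barcodes. Per peptide, the protein stability index was computed as the summed products of gate read frequency and gate number.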

Q: For ETSGVTTALLKDEEIEK [MED8], which protein stability index is on record?
A: 3.05 ± 0.18

Q: With ETTTEEDSENPSDWQRN [ITC1] as the sequence, how does the protein stability index read?
A: 3.31 ± 0.095

Q: With EVALFSQKAKLMTFNAE [YLR335W/NUP2] as the sequence, how does the protein stability index read?
A: 1.47 ± 0.057

Q: Which protein stability index does the source give for EVAQLGSLACDTADEAK [RPB4] here?
A: 3.28 ± 0.13

Q: With EVDYEDKDNPVDSRNET [SRB4] as the sequence, how does the protein stability index read?
A: 2.99 ± 0.17

Q: For EVEVSTRDLFDLEKDRA [RPO31], which protein stability index is on record?
A: 3.37 ± 0.061

Q: Which protein stability index does the source give for EVIFSFEGTPPFSLTYV [YMR129W/POM152] here?
A: 2.21 ± 0.063

Q: Which protein stability index does the source give for EVKEQLGILKKKRFDEF [SMC4] here?
A: 2.68 ± 0.22

Q: With EVQCTSTPYLEILVEES [PCI8] as the sequence, how does the protein stability index read?
A: 2.96 ± 0.18

Q: For EVSTSTSMTGDANLLEE [SWI3], which protein stability index is on record?
A: 3.23 ± 0.11

Q: With EVTEEQAEATEWAEENA [RPS0A] as the sequence, how does the protein stability index read?
A: 3.51 ± 0.1

Q: With EVVEAVTVVDTPPVVVV [RPL3] as the sequence, how does the protein stability index read?
A: 1.67 ± 0.05

Q: Which protein stability index does the source give for EVYEALKEVLYNDSATS [RPN2] here?
A: 3.45 ± 0.15

Q: With EVYMRYRNFMVNSYRLN [SWI3] as the sequence, how does the protein stability index read?
A: 1.62 ± 0.06

Q: Which protein stability index does the source give for EVYTKTIEVLDEVITEG [POP7] here?
A: 3.12 ± 0.064

Q: For EWVKLHRLLQRALFRQL [RMP1], which protein stability index is on record?
A: 1.58 ± 0.21

Q: For EYEKRNHGGSLGKYDLT [SRP68], which protein stability index is on record?
A: 2.56 ± 0.15

Q: With EYIFEAHEIIKREEKAM [CDC53] as the sequence, how does the protein stability index read?
A: 2.39 ± 0.088

Q: For EYLFKPQLISDKFSPED [ARP7], which protein stability index is on record?
A: 2.46 ± 0.042

Q: With EYLKRVSVPVSGQKTNR [SIR3] as the sequence, how does the protein stability index read?
A: 2.52 ± 0.087

Q: With EYMKRHPTTIESLREIP [SEC65] as the sequence, how does the protein stability index read?
A: 3.21 ± 0.068

Q: Which protein stability index does the source give for EYRDLYTNSVELRSLSK [YMR129W/POM152] here?
A: 3.27 ± 0.072

Q: With EYSDNFPVSLSQPSKKS [SIR4] as the sequence, how does the protein stability index read?
A: 3.05 ± 0.046

Q: With FAEENITHKLTKNDAGS [BRR2] as the sequence, how does the protein stability index read?
A: 3.22 ± 0.07

Q: With FAGEAGDTVQFAEYIQA [PRE1] as the sequence, how does the protein stability index read?
A: 1.74 ± 0.094

Q: Which protein stability index does the source give for FAIRDDRDHINPDDLMK [RPT4] here?
A: 2.99 ± 0.14

Q: Which protein stability index does the source give for FAQENSELAVATTSVMM [SRB6] here?
A: 3.13 ± 0.14

Q: For FAQGKRRYDRKQSGFGG [RPL42A], which protein stability index is on record?
A: 3.57 ± 0.28

Q: Which protein stability index does the source give for FASNKKINDESSIDKKS [YML103C/NUP188] here?
A: 2.92 ± 0.073

Q: For FATTKAECISLICSIGL [ECM29], which protein stability index is on record?
A: 1.97 ± 0.056

Q: For FAVIYLCDIDEVSDFDE [DIB1], which protein stability index is on record?
A: 2.16 ± 0.1

Q: For FDEFMNVVIDEAVEIPV [SME1], which protein stability index is on record?
A: 3.19 ± 0.066

Q: For FDIYNRDRKLITDKGTV [YJL039C/NUP192], which protein stability index is on record?
A: 2.53 ± 0.093

Q: For FDPFQAVSRSMTDIWNT [ECM29], which protein stability index is on record?
A: 2.73 ± 0.07

Q: Which protein stability index does the source give for FDQSTNVKVIMATNRAD [RPT3] here?
A: 2.15 ± 0.053

Q: With FDRHCNMVLENVKELWT [SMD2] as the sequence, how does the protein stability index read?
A: 2.38 ± 0.088

Q: For FEEDEKNSDVWFLDHNY [RPN8], which protein stability index is on record?
A: 1.73 ± 0.073

Q: For FEGCYYTPEESAWIWPM [RPC25], which protein stability index is on record?
A: 2.3 ± 0.21

Q: Which protein stability index does the source give for FEGNALIRRLVRVGVLS [RPS9A] here?
A: 2.52 ± 0.18

Q: With FEGVTHRWGTKKLPRKT [RPL3] as the sequence, how does the protein stability index read?
A: 2.98 ± 0.13

Q: For FEIIDEASKKSAVKPRP [FAS1], which protein stability index is on record?
A: 3.28 ± 0.14

Q: Which protein stability index does the source give for FEIQGVPPMKLAYSKIV [YMR129W/POM152] here?
A: 2.01 ± 0.063

Q: For FERFPSPSTSANVPSTA [RPN4], which protein stability index is on record?
A: 1.92 ± 0.04

Q: Which protein stability index does the source give for FESLYNSNDSVFVGSGK [BRR2] here?
A: 3.18 ± 0.11

Q: With FFAAIRFVLSDDYSNLK [SMC3] as the sequence, how does the protein stability index read?
A: 2.68 ± 0.13

Q: Which protein stability index does the source give for FGAKPEEQKSSDTSKPA [YJL041W/NSP1] here?
A: 2.91 ± 0.084

Q: Which protein stability index does the source give for FGDTKSESKQLGNTSSV [SWI3] here?
A: 3.16 ± 0.081

Q: Which protein stability index does the source give for FGHIMEDFQVLRLGRGI [YDL088C/ASM4] here?
A: 2.96 ± 0.055

Q: Which protein stability index does the source give for FGRTLASVTKEILGTAQ [RPL12A] here?
A: 1.53 ± 0.047

Q: With FGVTKARWPAKSVKFVQ [RPL17A] as the sequence, how does the protein stability index read?
A: 2.51 ± 0.077

Q: Which protein stability index does the source give for FHSTYLMNGVKPFKSFL [FAS1] here?
A: 2.55 ± 0.078

Q: With FIAVGQILPESQWNDSS [SIR3] as the sequence, how does the protein stability index read?
A: 3.08 ± 0.14

Q: For FIERNFTPQEIEYCSAQ [FAS2], which protein stability index is on record?
A: 3.54 ± 0.26

Q: Which protein stability index does the source give for FIKFKLIQQVPPGLDAL [CDC53] here?
A: 2.13 ± 0.11

Q: With FIRVIGSELVQKYVGEG [RPT1] as the sequence, how does the protein stability index read?
A: 2.57 ± 0.076

Q: Which protein stability index does the source give for FISSGTSLLDSLISVLE [YJL039C/NUP192] here?
A: 2.27 ± 0.052

Q: Which protein stability index does the source give for FITFSLDDWISIGYETE [IRR1] here?
A: 2.61 ± 0.088

Q: Which protein stability index does the source give for FITRLAQGLLHLGKGTM [RPN1] here?
A: 2.99 ± 0.091

Q: For FIVVPDLLKNAPLFKKN [SMD3], which protein stability index is on record?
A: 1.57 ± 0.042

Q: For FIYKKVLKEKDVPAYNV [SRB8], which protein stability index is on record?
A: 3.05 ± 0.062

Q: For FKELCYENKDNLTAGII [PRE3], which protein stability index is on record?
A: 2.95 ± 0.042

Q: For FKGALTIKILPENTAMF [YMR129W/POM152], which protein stability index is on record?
A: 2.14 ± 0.052

Q: For FKGVIVKIVDKDGIRQV [PRE1], which protein stability index is on record?
A: 3.11 ± 0.19

Q: Which protein stability index does the source give for FKHISVKDFTSLGFNEV [RPO21] here?
A: 2.38 ± 0.12

Q: For FKLVSTPSSNSNSSELE [MED1], which protein stability index is on record?
A: 2.29 ± 0.062

Q: Which protein stability index does the source give for FKQSNSETFLQFYVKRW [CDC53] here?
A: 2.96 ± 0.071

Q: With FKRNAVFVGTIFAGAFV [QCR9] as the sequence, how does the protein stability index read?
A: 1.58 ± 0.054

Q: With FKVQELLHSKPSLLLQK [NAS6] as the sequence, how does the protein stability index read?
A: 2.3 ± 0.074

Q: Which protein stability index does the source give for FKYIYELILAGAIDEAL [YDL116W/NUP84] here?
A: 1.5 ± 0.073

Q: Which protein stability index does the source give for FLDGIYVSHKGFITEDL [RPL9A] here?
A: 2.62 ± 0.063

Q: Which protein stability index does the source give for FLDYTTDNVSMYPSPTG [PRP8] here?
A: 2.85 ± 0.06

Q: For FLERKCVHMVYEYAEHD [SSN3], which protein stability index is on record?
A: 1.67 ± 0.071

Q: With FLGYKAGMTTIVRDLDR [RPL3] as the sequence, how does the protein stability index read?
A: 3.17 ± 0.18

Q: Which protein stability index does the source give for FLIIVPKSTLDNWRREF [ISW2] here?
A: 2.37 ± 0.27

Q: Which protein stability index does the source give for FLKERLMEASDAFRVHI [RPB2] here?
A: 1.7 ± 0.12

Q: Which protein stability index does the source give for FLKKLRNEQVTIELKNG [SMD1] here?
A: 2.24 ± 0.044

Q: For FLLRRVKADVEKSLLPK [ISW2], which protein stability index is on record?
A: 3.05 ± 0.17

Q: With FLPFNNSASNNGNLTSN [SWI1] as the sequence, how does the protein stability index read?
A: 3.02 ± 0.094

Q: With FLPKLNSVRNSLLLAHF [NUT1] as the sequence, how does the protein stability index read?
A: 1.5 ± 0.046

Q: Which protein stability index does the source give for FLQHPDEEYPVKVKVSY [PRP8] here?
A: 3.18 ± 0.11

Q: With FLTVSKLWAEIIVKILY [GRR1] as the sequence, how does the protein stability index read?
A: 1.97 ± 0.058

Q: Which protein stability index does the source give for FMKSVIRSREAFSYEQA [DIS3] here?
A: 2.73 ± 0.082

Q: For FNAPATGNGTTTTSNTS [YOR098C/NUP1], which protein stability index is on record?
A: 2.83 ± 0.035

Q: Which protein stability index does the source give for FNDFSNIKTSEWDLYPQ [REC8] here?
A: 2.92 ± 0.053

Q: Which protein stability index does the source give for FNGAQLKAVTVEAGMIA [RPT5] here?
A: 2.62 ± 0.15

Q: Which protein stability index does the source give for FNGYNPEKKEMIQEVIV [FAS2] here?
A: 3.46 ± 0.1

Q: For FNSFRRFKSQFLYVLIP [QCR8], which protein stability index is on record?
A: 1.69 ± 0.069

Q: For FNVVDVGVDQLSIELEG [YJL039C/NUP192], which protein stability index is on record?
A: 3.34 ± 0.058

Q: Which protein stability index does the source give for FNYVQECPAIPIFNYIF [YJL039C/NUP192] here?
A: 1.75 ± 0.056

Q: Which protein stability index does the source give for FPEENIIDAKTRNEQTT [MCD1] here?
A: 3.16 ± 0.057

Q: With FPPNLEKGENPSCVYNL [UBP6] as the sequence, how does the protein stability index read?
A: 1.7 ± 0.088

Q: For FQAVIQKSINHPPDFKR [SNF2], which protein stability index is on record?
A: 2.98 ± 0.19

Q: Which protein stability index does the source give for FQDTLYKKIPLLGPTLE [QCR10] here?
A: 2.94 ± 0.11

Q: For FRCKETHSYNFMRQNLE [RPC82], which protein stability index is on record?
A: 1.88 ± 0.093

Q: For FSHPAHQQRMSRTAADI [YCG1], which protein stability index is on record?
A: 2.15 ± 0.093

Q: With FSHSLTTILSFSSPAAL [NUT1] as the sequence, how does the protein stability index read?
A: 1.38 ± 0.029

Q: With FSKFERSKSSHKNERRV [SKI6] as the sequence, how does the protein stability index read?
A: 3.16 ± 0.08

Q: For FSNVELPQCIIPSSYIK [ARP7], which protein stability index is on record?
A: 2.38 ± 0.041

Q: With FSQEALQYVVERVGKRT [FAS1] as the sequence, how does the protein stability index read?
A: 1.24 ± 0.11

Q: With FSSNLSYANHLEESDVE [YOR098C/NUP1] as the sequence, how does the protein stability index read?
A: 2.22 ± 0.059

same assay, conditions: san1∆

Q: Which protein stability index does the source give for ETSCDNYHPMNIDETSD [SMC4] here?
A: 3.15 ± 0.041
